Experimental data reported in the Immune Epitope Database (IEDB).

Legend:
[1] = biological target: HLA-B*07:02; assay: IEDB peptide-MHC binding, purified MHC/competitive/radioactivity; filed as Kd, often an IC50 or EC50 that approximates it; ≥ and ≤ were set here for values at or beyond the usual limits of such assays
[2] = biological target: HLA-B*51:01; assay: as above
[3] = biological target: HLA-B*53:01; assay: as above
[4] = biological target: HLA-B*35:01; assay: as above
[5] = biological target: HLA-B*54:01; assay: as above
[6] = biological target: HLA-A*02:01; assay: as above
[7] = biological target: HLA-A*02:06; assay: as above
[8] = biological target: HLA-B*18:01; assay: IEDB peptide-MHC binding, purified MHC/direct/fluorescence; filed as Kd, often an IC50 or EC50 that approximates it; ≥ and ≤ were set here for values at or beyond the usual limits of such assays
[9] = biological target: HLA-A*68:02; assay: IEDB peptide-MHC binding, purified MHC/competitive/radioactivity; filed as Kd, often an IC50 or EC50 that approximates it; ≥ and ≤ were set here for values at or beyond the usual limits of such assays
[10] = biological target: HLA-A*02:03; assay: as above
[11] = biological target: HLA-A*02:02; assay: as above
[12] = biological target: HLA-A*26:01; assay: as above
[13] = biological target: HLA-A*31:01; assay: as above; details: source organism: Vaccinia virus Copenhagen
[14] = biological target: HLA-A*68:01; assay: as above; details: source organism: Vaccinia virus Copenhagen
[15] = biological target: HLA-A*03:01; assay: as above; details: source organism: Vaccinia virus Copenhagen
[16] = biological target: HLA-A*11:01; assay: as above; details: source organism: Vaccinia virus Copenhagen
[17] = biological target: HLA-A*33:01; assay: as above; details: source organism: Vaccinia virus Copenhagen
[18] = biological target: HLA-A*02:01; assay: IEDB peptide-MHC binding, purified MHC/competitive/fluorescence; ≥ and ≤ were set here for values at or beyond the usual limits of such assays; details: source organism: Zaire ebolavirus
[19] = biological target: HLA-A*24:02; assay: as above; details: source organism: Zaire ebolavirus
[20] = biological target: HLA-B*15:01; assay: as above; details: source organism: Zaire ebolavirus
[21] = biological target: HLA-B*44:02; assay: IEDB peptide-MHC binding, purified MHC/direct/fluorescence; filed as Kd, often an IC50 or EC50 that approximates it; ≥ and ≤ were set here for values at or beyond the usual limits of such assays
[22] = biological target: HLA-B*40:01; assay: as above
[23] = biological target: HLA-B*57:01; assay: as above; details: source organism: Giardia lamblia ATCC 50803
[24] = biological target: HLA-B*15:01; assay: as above; details: source organism: Giardia lamblia ATCC 50803
[25] = biological target: HLA-B*58:01; assay: as above; details: source organism: Giardia lamblia ATCC 50803
[26] = source organism: Human alphaherpesvirus 2
[27] = source organism: Vaccinia virus WR
[28] = source organism: Lassa virus Josiah
[29] = source organism: Mammarenavirus lassaense
[30] = source organism: Dengue virus 3 Sri Lanka/1266/2000
[31] = source organism: Dengue virus 4 Philippines/H241/1956
[32] = source organism: Trypanosoma cruzi
[33] = source organism: SARS coronavirus Tor2
[34] = source organism: Dengue virus 2 Jamaica/1409/1983
[35] = source organism: Vaccinia virus Copenhagen
[36] = source organism: Lymphocytic choriomeningitis virus (strain Armstrong)
[37] = source organism: Triticum aestivum
[38] = source organism: Influenza A virus (A/duck/Guangxi/1586/2004(H5N1))
[39] = source organism: Orthohantavirus dobravaense
[40] = source organism: Mammarenavirus juninense
[41] = source organism: Orthohantavirus andesense

APAWSRRTL
Kd [1, 26]: 0.19 nM
Kd [2, 26]: ≥ 59500 nM
Kd [3, 26]: 3550 nM
Kd [4, 26]: 3240 nM
Kd [5, 26]: 5560 nM

APKQVAGTGV
Kd [1, 27]: 10.9 nM
Kd [2, 27]: ≥ 61000 nM
Kd [3, 27]: ≥ 69900 nM
Kd [4, 27]: ≥ 69900 nM
Kd [5, 27]: 266 nM

AVSGGLNTSV
Kd [6, 28]: ≥ 25000 nM

CPFLFLTVL
Kd [1, 29]: 99.5 nM
Kd [2, 29]: 746 nM
Kd [3, 29]: 216 nM
Kd [4, 29]: 41.2 nM
Kd [5, 29]: 160 nM

CPQKKKSQA
Kd [1, 27]: 105 nM
Kd [2, 27]: ≥ 77500 nM
Kd [3, 27]: ≥ 78200 nM
Kd [4, 27]: ≥ 77400 nM
Kd [5, 27]: 66.7 nM

DMKKKMEDSV
Kd ([7]; source organism: Homo sapiens): ≥ 72500 nM
Kd ([6]; source organism: Homo sapiens): 15000 nM

DPLVIPFSF
Kd ([8]; source organism: Salmonella enterica subsp. enterica serovar Paratyphi A str. ATCC 9150): 3130 nM

DPPIPYSRV
Kd [1, 27]: ≥ 77500 nM
Kd [2, 27]: 31 nM
Kd [3, 27]: ≥ 31500 nM
Kd [4, 27]: ≥ 53400 nM
Kd [5, 27]: 320 nM

ELEKSKRAL
Kd ([9]; source organism: Homo sapiens): ≥ 54300 nM

ELNDRLAVYI
Kd ([9]; source organism: Homo sapiens): 50.6 nM
Kd ([7]; source organism: Homo sapiens): ≥ 30400 nM
Kd ([6]; source organism: Homo sapiens): 1160 nM
Kd ([10]; source organism: Homo sapiens): 1220 nM
Kd ([11]; source organism: Homo sapiens): 134 nM

EPSGNNYHI
Kd [1, 27]: 1420 nM
Kd [2, 27]: 692 nM
Kd [3, 27]: 20.3 nM
Kd [4, 27]: ≥ 44300 nM
Kd [5, 27]: 1580 nM

ETYQLWTALV
Kd [9, 30]: 0.07 nM
Kd [12, 30]: 56.6 nM

EVALLRTYCI
Kd [9, 31]: 29.7 nM
Kd [12, 31]: 6170 nM

FGMFTTNIW
Kd [3, 31]: 20.5 nM

FLSHDFTLV
Kd [9, 32]: 636 nM
Kd [7, 32]: 0.765 nM
Kd [10, 32]: 0.142 nM
Kd [11, 32]: 0.0619 nM

FPQVGGLTSI
Kd [1, 33]: 162 nM
Kd [2, 33]: 76.8 nM
Kd [3, 33]: 24 nM
Kd [4, 33]: 609 nM
Kd [5, 33]: 25.7 nM

FVEGVSGGAW
Kd [3, 31]: 209 nM

GIGILTVIL
Kd ([6]; source organism: Homo sapiens): 1000 nM

GITRPTTVV
Kd [9, 32]: 3150 nM
Kd [7, 32]: 6130 nM
Kd [6, 32]: ≥ 50700 nM
Kd [10, 32]: 795 nM
Kd [11, 32]: 14000 nM

GSFGDIYLA
Kd ([6]; source organism: Homo sapiens): 232 nM

GVLPLLLLYS
Kd [9, 32]: 3560 nM
Kd [7, 32]: 14.9 nM
Kd [6, 32]: 2370 nM
Kd [10, 32]: 673 nM
Kd [11, 32]: 1300 nM

HTIENTSANL
Kd [9, 31]: 15 nM
Kd [12, 31]: ≥ 48900 nM

IPEISSNDNA
Kd [1, 27]: ≥ 69600 nM
Kd [2, 27]: ≥ 69600 nM
Kd [3, 27]: 2390 nM
Kd [4, 27]: ≥ 69900 nM
Kd [5, 27]: 4540 nM

IPVTMTLWYM
Kd [1, 31]: 744 nM
Kd [3, 31]: 69.2 nM
Kd [4, 31]: 156 nM

LAANAICSAV
Kd [9, 34]: 9.04 nM

LILSCIFAFI
Kd [13]: 254 nM
Kd [9, 35]: 17.5 nM
Kd [14]: 658 nM
Kd [7, 35]: 42.5 nM
Kd [15]: 947 nM
Kd [1, 35]: ≥ 69600 nM
Kd [2, 35]: 17200 nM
Kd [16]: 5710 nM
Kd [3, 35]: 1840 nM
Kd [17]: 1860 nM
Kd [4, 35]: ≥ 36600 nM
Kd [10, 35]: 19.9 nM
Kd [5, 35]: 1520 nM
Kd [11, 35]: 5.22 nM

LMHNQDGLI
IC50 [18]: 1720 nM
IC50 [19]: 24600 nM
IC50 [20]: 67400 nM

LPNVQFVDI
Kd [1, 27]: 2710 nM
Kd [2, 27]: 32.2 nM
Kd [3, 27]: 65.2 nM
Kd [4, 27]: 234 nM
Kd [5, 27]: 16.8 nM

MPKDGLKVL
Kd [1, 29]: 802 nM
Kd [2, 29]: 6530 nM
Kd [3, 29]: 2320 nM
Kd [4, 29]: 421 nM
Kd [5, 29]: 96.5 nM

MPSLTMACM
Kd [1, 36]: 112 nM
Kd [2, 36]: 881 nM
Kd [3, 36]: 2160 nM
Kd [4, 36]: 5.44 nM
Kd [5, 36]: 1290 nM

NVSIPWTHK
Kd ([6]; source organism: Hepatitis B virus subtype adw2): ≥ 35000 nM

QLADETLLKV
Kd ([9]; source organism: Homo sapiens): 11900 nM
Kd ([7]; source organism: Homo sapiens): 61.4 nM
Kd ([11]; source organism: Homo sapiens): 14 nM

QLYKEQLAKL
Kd ([9]; source organism: Homo sapiens): 7620 nM
Kd ([6]; source organism: Homo sapiens): 78 nM
Kd ([10]; source organism: Homo sapiens): 16.3 nM
Kd ([11]; source organism: Homo sapiens): 4.63 nM

QMKDCMREL
Kd ([9]; source organism: Homo sapiens): ≥ 60000 nM

QPQLPYPQPQL
Kd [1, 37]: 9630 nM
Kd [2, 37]: 353 nM
Kd [3, 37]: ≥ 63700 nM
Kd [4, 37]: ≥ 40700 nM
Kd [5, 37]: ≥ 63700 nM

QVMLLILCV
Kd [9, 34]: 1740 nM

REILTKTTV
Kd [8, 38]: 358 nM
Kd [21, 38]: ≥ 47800 nM
Kd [22, 38]: 4.9 nM

SEVTTCFFL
Kd [8, 39]: 48.5 nM
Kd [22, 39]: 12.7 nM

SILRVGTLT
Kd [6, 28]: ≥ 25000 nM

SQCQAIHNV
Kd [9, 37]: 5790 nM
Kd [7, 37]: 132 nM
Kd [6, 37]: 972 nM
Kd [10, 37]: 254 nM
Kd [11, 37]: 770 nM

TIAVSTANI
Kd [9, 31]: 25.6 nM

TPENFSSLI
Kd [1, 40]: 8260 nM
Kd [2, 40]: 1960 nM
Kd [3, 40]: 1320 nM
Kd [4, 40]: ≥ 38700 nM
Kd [5, 40]: ≥ 78100 nM

TSLSMTCIAV
Kd ([9]; source organism: Dengue virus 1 Brazil/97-11/1997): 13500 nM

TTATITPQA
Kd ([9]; source organism: Dengue virus 1 Nauru/West Pac/1974): 1.12 nM

TTPFGQQRV
Kd [9, 31]: 102 nM

VENSPRASL
Kd [8, 29]: 552 nM
Kd [22, 29]: 114 nM

VPWSKILAY
Kd [1, 33]: 447 nM
Kd [2, 33]: 90.5 nM
Kd [3, 33]: 7.08 nM
Kd [4, 33]: 8.22 nM
Kd [5, 33]: 536 nM

YEGDLRVTF
Kd [8, 41]: ≤ 1 nM
Kd [21, 41]: 4300 nM
Kd [22, 41]: 8.3 nM

YMYAATNTH
Kd [23]: ≥ 20000 nM
Kd [24]: 40 nM
Kd [25]: ≥ 20000 nM
